# Test results taken from article PMC4351136 (The FEBS journal, 2015).
# T1: domain V of human β2GPI (human, UniProt P02749 263-345)
# T1 sequence (looked up): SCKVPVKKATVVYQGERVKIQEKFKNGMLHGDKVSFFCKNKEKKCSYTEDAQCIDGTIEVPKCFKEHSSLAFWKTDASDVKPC
# Biological target: T1, domain V of human β2GPI
# Experiment: ITC
binder,measurement,value
Asn36/Asp mutant of mouse A1 (domain or fragment) not shown,Kd,14 µM
same,dH,-4.3 ± 0.2 kcal/mol
same,stoichiometry N,1.04 ± 0.03
